Assay results as given in patent US20210388043A1.

Target: CD47 (human) (UniProt Q08722)
Experiment: cell binding (FACS); PC-3 cells
Conditions: Fc fusion

EC50: 0.58 µg/mL
Substance: SIRPαD1-Fc
